T1: human FcγRIIA-R131 α subunit extracellular domain-His6-GST fusion (human, UniProt P12318 34-217)
T1 construct: ECD-6His-GST fusion made in 293 cells; also called FcγRIIA-Arg131; not shown: glutathione S transferase (GST)
T1 sequence: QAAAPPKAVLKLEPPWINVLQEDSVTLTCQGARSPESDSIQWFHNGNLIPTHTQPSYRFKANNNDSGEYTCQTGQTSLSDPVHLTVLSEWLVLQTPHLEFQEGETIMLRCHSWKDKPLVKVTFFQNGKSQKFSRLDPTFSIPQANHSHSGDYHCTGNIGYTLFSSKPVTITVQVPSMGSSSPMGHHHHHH

T2: human FcγRIIA-Arg131 α subunit extracellular domain-His6-GST fusion (human, UniProt P12318 34-217)
T2 construct: extracellular domain; also called FcγRIIA-R131; not shown: glutathione S transferase (GST)
T2 sequence: T1 sequence

T3: human FcγRIIB α subunit extracellular domain-His6-GST fusion (human, UniProt P31994 43-217)
T3 construct: extracellular domain; also called CD32; not shown: glutathione S transferase (GST)
T3 sequence: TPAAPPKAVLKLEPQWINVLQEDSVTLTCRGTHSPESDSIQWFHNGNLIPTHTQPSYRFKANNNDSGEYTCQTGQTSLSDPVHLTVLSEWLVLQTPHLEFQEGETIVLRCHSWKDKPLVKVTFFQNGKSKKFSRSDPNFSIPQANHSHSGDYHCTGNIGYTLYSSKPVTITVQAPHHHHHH

B1: anti-IgE E27 IgG1 Pro238Ala (antibody)
heavy: not shown
light: DIQLTQSPSSLSASVGDRVTITCRASKPVDGEGDSYLNWYQQKPGKAPKLLIYAASYLESGVPSRFSGSGSGTDFTLTISSLQPEDFATYYCQQSHEDPYTFGQGTKVEIKRTVAAPSVFIFPPSDEQLKSGTASVVCLLNNFYPREAKVQWKVDNALQSGNSQESVTEQDSKDSTYSLSSTLTLSKADYEKHKVYACEVTHQGLSSPVTKSFNRGEC
B2: anti-IgE E27 IgG1 Ser239Ala (antibody)
heavy: not shown
light: B1 light
B3: anti-IgE E27 IgG1 Ser267Ala (antibody)
heavy: not shown
light: B1 light
notes: also called G15 S267A
B4: anti-IgE E27 IgG1 Ser298Ala (antibody)
heavy: not shown
light: B1 light
notes: also called G36 S298A
B5: anti-IgE E27 IgG1 Ser337Ala (antibody)
heavy: not shown
light: B1 light
B6: anti-IgE E27 IgG1 Ser415Ala (antibody)
heavy: not shown
light: B1 light
B7: anti-IgE E27 IgG1 Ser424Ala (antibody)
heavy: not shown
light: B1 light
B8: anti-IgE E27 IgG1 Thr256Ala (antibody)
heavy: not shown
light: B1 light
B9: anti-IgE E27 IgG1 Thr307Ala (antibody)
heavy: not shown
light: B1 light
B10: anti-IgE E27 IgG1 Val303Ala (antibody)
heavy: not shown
light: B1 light
B11: anti-IgE E27 IgG1 Val305Ala (antibody)
heavy: not shown
light: B1 light
B12: anti-IgE E27 IgG1 variant E283(300)A (antibody)
heavy: not shown
light: B1 light
notes: Fc variant of E27; also called IG2 25
B13: anti-IgE E27 IgG1 variant E283(300)D (antibody)
heavy: not shown
light: B1 light
notes: Fc variant of E27
B14: anti-IgE E27 IgG1 variant E283(300)N (antibody)
heavy: not shown
light: B1 light
notes: Fc variant of E27; also called IG2 228
B15: anti-IgE E27 IgG1 variant E283(300)Q (antibody)
heavy: not shown
light: B1 light
notes: Fc variant of E27; also called IG2 226
B16: anti-IgE E27 IgG1 variant E283(300)S (antibody)
heavy: not shown
light: B1 light
notes: Fc variant of E27; also called IG2 227
B17: anti-IgE E27 IgG1 variant E294(311)A (antibody)
heavy: not shown
light: B1 light
notes: Fc variant of E27; also called IG2 33
B18: anti-IgE E27 IgG1 variant E294(311)D (antibody)
heavy: not shown
light: B1 light
notes: Fc variant of E27; also called IG2 174
B19: anti-IgE E27 IgG1 variant E294(311)Q (antibody)
heavy: not shown
light: B1 light
notes: Fc variant of E27; also called IG2 173
B20: anti-IgE E27 IgG1 variant E333(352)G (antibody)
heavy: not shown
light: B1 light
notes: Fc variant of E27; also called IG2 178
B21: anti-IgE E27 IgG1 variant E380(405)A/L309(328)A (antibody)
heavy: not shown
light: B1 light
notes: Fc variant of E27; also called IG2 271; Glu380Ala/Leu309Ala
B22: anti-IgE E27 IgG1 variant K334(353)R (antibody)
heavy: not shown
light: B1 light
notes: Fc variant of E27; also called Lys334Arg
B23: anti-IgE E27 IgG1 variant P331(350)E (antibody)
heavy: not shown
light: B1 light
notes: Fc variant of E27; also called IG2 200
B24: anti-IgE E27 IgG1 variant P331(350)K (antibody)
heavy: not shown
light: B1 light
notes: Fc variant of E27
B25: anti-IgE E27 IgG1 variant P331(350)N (antibody)
heavy: not shown
light: B1 light
notes: Fc variant of E27; also called IG2 199
B26: anti-IgE E27 IgG1 variant P331(350)S (antibody)
heavy: not shown
light: B1 light
notes: Fc variant of E27; also called IG2 198; Pro331Ser
B27: anti-IgE E27 IgG1 variant R292(309)A (antibody)
heavy: not shown
light: B1 light
notes: Fc variant of E27; also called IG2 31; G31
B28: anti-IgE E27 IgG1 variant R292(309)H (antibody)
heavy: not shown
light: B1 light
notes: Fc variant of E27; also called IG2 81
B29: anti-IgE E27 IgG1 variant R292(309)K (antibody)
heavy: not shown
light: B1 light
notes: Fc variant of E27; also called IG2 80

Molecular target: T4, human neonatal Fc receptor (FcRn), biotinylated (human, UniProt P55899 24-297; P61769 21-119, biotinylated (biotin-X-NHS))
T4 construct: captured on streptavidin plates
Assay: FcRn ELISA, pH 6.0;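 note: Streptavidin-captured FcRn plates, IgG variants titrated 2 h at pH 6.0, peroxidase anti-human IgG read at 450 nm, variant over standard concentration at the standard curve mid-point absorbance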

T4 sequence (P55899 24-297 limits assumed, chain 1 of 2): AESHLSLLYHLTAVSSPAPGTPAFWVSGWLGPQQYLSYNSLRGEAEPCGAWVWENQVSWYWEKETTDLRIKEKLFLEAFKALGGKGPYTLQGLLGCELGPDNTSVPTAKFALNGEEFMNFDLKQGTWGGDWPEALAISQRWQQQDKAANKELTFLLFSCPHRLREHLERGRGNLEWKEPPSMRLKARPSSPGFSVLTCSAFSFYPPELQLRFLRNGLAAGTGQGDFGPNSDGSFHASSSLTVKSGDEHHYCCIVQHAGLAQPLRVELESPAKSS
T4 sequence (P61769 21-119 limits assumed, chain 2 of 2): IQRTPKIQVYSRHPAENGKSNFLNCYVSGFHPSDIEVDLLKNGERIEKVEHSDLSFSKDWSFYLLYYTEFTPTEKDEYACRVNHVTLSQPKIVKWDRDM

Binder | ratio to native IgG1
B1 | 1.49 ratio
B2 | 1.06 ratio
B3 | 1.08 ratio
B4 | 0.8 ratio
B5 | 1.03 ratio
B6 | 0.44 ratio
B7 | 1.41 ratio
B8 | 1.91 ratio
B9 | 1.81 ratio
B10 | 1.26 ratio
B11 | 1.46 ratio

Molecular target: T5, human FcγRIIIA-V158 α subunit extracellular domain-His6-GST fusion (human, UniProt P08637 17-208)
T5 construct: ECD-6His-GST fusion made in 293 cells; also called FcγRIIIA-Val158; not shown: glutathione S transferase (GST)
Assay: ELISA, IgG monomer, receptor coated

T5 sequence (P08637 other isoform, or with tags, fused parts or gaps, form in doubt): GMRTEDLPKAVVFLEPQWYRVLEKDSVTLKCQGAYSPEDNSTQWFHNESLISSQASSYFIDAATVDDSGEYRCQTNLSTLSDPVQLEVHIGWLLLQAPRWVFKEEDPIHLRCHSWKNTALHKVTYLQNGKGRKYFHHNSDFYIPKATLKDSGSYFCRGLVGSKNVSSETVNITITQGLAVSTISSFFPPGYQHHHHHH

Binder | ratio of binding, variant/native IgG1 (mean)
B12 | 0.78 ratio
B13 | 0.67 ratio
B14 | 0.63 ratio
B15 | 0.89 ratio
B16 | 0.83 ratio
B17 | 0.68 ratio
B18 | 0.26 ratio
B19 | 0.79 ratio
B20 | 1.23 ratio
B21 | 1.1 ratio
B22 | 0.88 ratio
B23 | 0.36 ratio
B24 | 0.26 ratio
B25 | 0.24 ratio
B26 | 0.54 ratio
B27 | 0.94 ratio
B28 | 1.21 ratio
B29 | 1.64 ratio

Molecular target: T6, human FcγRIIIA-F158 α subunit extracellular domain-His6-GST fusion (human, UniProt P08637 17-208)
T6 construct: ECD-6His-GST fusion made in 293 cells; also called FcγRIIIA-Phe158; not shown: glutathione S transferase (GST)
Assay: ELISA, IgG complex, receptor coated

T6 sequence (P08637 other isoform, or with tags, fused parts or gaps, form in doubt): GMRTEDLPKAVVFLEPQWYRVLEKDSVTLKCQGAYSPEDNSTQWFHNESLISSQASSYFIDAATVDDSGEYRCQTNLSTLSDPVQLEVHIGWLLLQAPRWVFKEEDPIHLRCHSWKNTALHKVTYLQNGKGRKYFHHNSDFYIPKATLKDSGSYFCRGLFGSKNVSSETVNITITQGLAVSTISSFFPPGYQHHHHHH

Binder | ratio of binding, variant/native IgG1 (mean)
B12 | 1.01 ratio
B13 | 0.95 ratio
B14 | 0.94 ratio
B15 | 1.19 ratio
B16 | 0.85 ratio
B17 | 0.66 ratio
B18 | 0.14 ratio
B19 | 0.84 ratio
B20 | 1.05 ratio
B21 | 0.92 ratio
B22 | 0.68 ratio
B23 | 0.42 ratio
B24 | 0.33 ratio
B25 | 0.23 ratio
B26 | 0.86 ratio
B27 | 0.9 ratio
B28 | 0.92 ratio
B29 | 1.15 ratio

Molecular target: T1, human FcγRIIA-R131 α subunit …
Assay: ELISA, IgG complex, receptor coated

Binder | ratio of binding, variant/native IgG1 (mean)
B12 | 1.24 ratio
B13 | 1.14 ratio
B14 | 1.18 ratio
B15 | 1.12 ratio
B16 | 1.03 ratio
B17 | 0.87 ratio
B18 | 0.37 ratio
B19 | 1.01 ratio
B20 | 0.87 ratio
B21 | 0.98 ratio
B22 | 1.15 ratio
B23 | 1.06 ratio
B24 | 0.94 ratio
B25 | 0.86 ratio
B26 | 1 ratio
B27 | 0.27 ratio
B28 | 0.21 ratio
B29 | 0.71 ratio

Molecular target: T7, human FcγRIIIA-Phe158 α subunit extracellular domain-His6-GST fusion (human, UniProt P08637 17-208)
T7 construct: extracellular domain; also called FcγRIIIA-F158; CD16; not shown: glutathione S transferase (GST)
Assay: hexamer ELISA

Binder | ratio to native IgG1
B1 | 0.07 ratio
B2 | 0.26 ratio
B3 | 1.05 ratio
B4 | 1.34 ratio
B5 | 0.94 ratio
B6 | 0.86 ratio
B7 | 0.89 ratio
B8 | 1.32 ratio
B9 | 1.09 ratio
B10 | 0.33 ratio
B11 | 0.84 ratio

Molecular target: T2, human FcγRIIA-Arg131 α subunit …
Assay: hexamer ELISA

Binder | ratio to native IgG1
B1 | 0.38 ratio
B2 | 0.73 ratio
B3 | 1.52 ratio
B4 | 0.4 ratio
B5 | 1.22 ratio
B6 | 0.9 ratio
B7 | 1.04 ratio
B8 | 1.41 ratio
B9 | 1.07 ratio
B10 | 0.86 ratio
B11 | 1.12 ratio

Molecular target: T3, human FcγRIIB α subunit extracellular …
Assay: hexamer ELISA

Binder | ratio to native IgG1
B1 | 0.36 ratio
B2 | 0.76 ratio
B3 | 1.84 ratio
B4 | 0.23 ratio
B5 | 1.26 ratio
B6 | 0.88 ratio
B7 | 1.02 ratio
B8 | 2.06 ratio
B9 | 1.27 ratio
B10 | 0.65 ratio
B11 | 1.23 ratio

Molecular target: T8, human FcγRIA α subunit extracellular domain-His6-GST fusion (human, UniProt P12314 16-292)
T8 construct: extracellular domain; also called GST-FcγRIA; CD64; not shown: glutathione S transferase (GST)
Assay: FcγRI ELISA and THP-1 cells, averaged

T8 sequence (P12314 other isoform, or with tags, fused parts or gaps): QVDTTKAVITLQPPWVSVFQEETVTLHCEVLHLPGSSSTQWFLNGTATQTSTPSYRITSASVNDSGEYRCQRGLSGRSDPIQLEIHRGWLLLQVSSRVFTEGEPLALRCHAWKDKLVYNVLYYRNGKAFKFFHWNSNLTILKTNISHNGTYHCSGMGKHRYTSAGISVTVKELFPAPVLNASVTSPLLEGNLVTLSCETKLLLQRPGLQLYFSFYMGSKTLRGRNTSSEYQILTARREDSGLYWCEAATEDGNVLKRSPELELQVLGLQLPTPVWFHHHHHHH

Binder | ratio to native IgG1
B1 | 0.6 ratio
B2 | 0.81 ratio
B3 | 1.09 ratio
B4 | 1.11 ratio
B5 | 1.17 ratio
B6 | 1.04 ratio
B7 | 0.98 ratio
B8 | 1.01 ratio
B9 | 0.99 ratio
B10 | 0.91 ratio
B11 | 1.04 ratio

Source: US7183387 (Genentech, dated 2007)
